Reference: paper PMC12184499, “Pathogenic variants in the polycystin pore helix cause distinct forms of channel dysfunction” (Proceedings of the National Academy of Sciences of the …, 2025)
Residue numbers refer to the chain shown, from its start. Names may count otherwise.

B1: PKD2 WT channel (hPKD2: 52-793) (domain or fragment, human, UniProt Q13563 52-793, looked up)
chain: LEIEMQRIRQAAARDPPAGAAASPSPPLSSCSRQAWSRDNPGFEAEEEEEEVEGEEGGMVVEMDVEWRPGSRRSAASSAVSSVGARSRGLGGYHGAGHPSGRRRRREDQGPPCPSPVGGGDPLHRHLPLEGQPPRVAWAERLVRGLRGLWGTRLMEESSTNREKYLKSVLRELVTYLLFLIVLCILTYGMMSSNVYYYTRMMSQLFLDTPVSKTEKTNFKTLSSMEDFWKFTEGSLLDGLYWKMQPSNQTEADNRSFIFYENLLLGVPRIRQLRVRNGSCSIPQDLRDEIKECYDVYSVSSEDRAPFGPRNGTAWIYTSEKDLNGSSHWGIIATYSGAGYYLDLSRTREETAAQVASLKKNVWLDRGTRATFIDFSVYNANINLFCVVRLLVEFPATGGVIPSWQFQPLKLIRYVTTFDFFLAACEIIFCFFIFYYVVEEILEIRIHKLHYFRSFWNCLDVVIVVLSVVAIGINIYRTSNVEVLLQFLEDQNTFPNFEHLAYWQIQFNNIAAVTVFFVWIKLFKFINFNRTMSQLSTTMSRCAKDLFGFAIMFFIIFLAYAQLAYLVFGTQVDDFSTFQECIFTQFRIILGDINFAEIEEANRVLGPIYFTTFVFFMFFILLNMFLAIINDTYSEVKSDLAQQKAEMELSDLIRKGYHKALVKLKLKKNTVDDISESLRQGGGKLNFDELRQDLKGKGHTDAEIEAIFTKYDQDGDQELTEHEHQQMRDDLEKEREDLDLDH
notes: PKD2 (polycystin-2), human, residues 52-793 (hPKD2: 52-793); Construct is Strep-MBP-TEV-PKD2; the Strep tag lies before MBP and the TEV site, so it probably left with MBP on TEV cleavage; The cryo-EM methods give 53-792 for the variants; also called polycystin; source: Expi293F GnTI-/- cells, transient transfection, purified (Strep-Tactin, amphipol A8-35, SEC); not shown: MBP, N-terminal, cleaved
B2: PKD2 F629S variant channel (hPKD2: 52-793) (domain or fragment, human, UniProt Q13563 52-793, looked up)
chain: B1 chain with F578S
notes: PKD2 (polycystin-2), human, residues 52-793, ADPKD germline missense variant F629S in pore helix 1; Construct is Strep-MBP-TEV-PKD2; the Strep tag probably left with MBP on TEV cleavage; The cryo-EM methods give 53-792; the model holds E214-Q694 without M295-A303; source: Expi293F GnTI-/- cells, transient transfection, purified (Strep-Tactin, amphipol A8-35, SEC); not shown: MBP, N-terminal, …
B3: PKD2 R638C variant channel (hPKD2: 52-793) (domain or fragment, human, UniProt Q13563 52-793, looked up)
chain: B1 chain with R587C
notes: PKD2 (polycystin-2), human, residues 52-793, ADPKD germline missense variant R638C in pore helix 1; Construct is Strep-MBP-TEV-PKD2; the Strep tag probably left with MBP on TEV cleavage; The cryo-EM methods give 53-792; the model holds E214-Q694 without M295-A303; source: Expi293F GnTI-/- cells, transient transfection, purified (Strep-Tactin, amphipol A8-35, SEC); not shown: MBP, N-terminal, …

Assays:
[1] = biological target: the molecule itself; assay: SEC; Superdex 200 10/300 GL; PKD2 52-793 extracted with DDM and reconstituted in amphipol A8-35; Buffer B (25 mM pH 7.4, 150 mM NaCl, 1 mM TCEP, 1 mM CaCl2); oligomer and protomer peaks
[2] = biological target: the molecule itself; assay: cryo-EM structure; single-particle cryo-EM of variant channels in amphipol A8-35 (0.5 to 1.0 mg/mL), refined with C4 symmetry

Protein	binding result [1]	stoichiometry N [2]
B1	binds	–
B2	–	4
B3	–	4
